From US8026342B2, “Compositions and methods for binding sphingosine-1-phosphate” (Lpath, Inc., priority 2006, dated 2011)

Tests used:
[1] = GLP 28-day safety toxicology study of LT1009 in monkeys; format: in vivo
Method: In addition, blood was collected from recovery animals 48, 72, 144 and 240 hours following the end of the last dose. Parameters monitored during this study included mortality, clinical signs, body weight, qualitative evaluation of the food consumption, ophthalmology, electrocardiography, and clinical pathology (hematology, clinical chemistry, coagulation and urinalysis). Blood samples were also collected for immunophenotyping assessments, at pre-treatment, on the last day of treatment, and on days 35, 42 and at the end of the recovery period. At termination, a macroscopic examination was performed and selected organs were weighed. Histological evaluation of tissues was conducted on all animals.

CNV lesions = experiment: CNV animal model of AMD, murine vs humanized mAbs (Example 17); format: in vivo, mice; conditions: for Percent inhibition of lesion size: 14 days post laser
Method: The humanized antibody variants and the murine antibody were compared for their ability to inhibit neo-vascularization in the CNV animal model of AMD as shown in FIG. 13. […] Mice were sacrificed 14 days post laser surgery. Control mice were treated with aqueous buffer (PBS) or an isotype-matched non-specific antibody. Three of the humanized variants inhibited angiogenesis essentially equivalently to the murine antibody as assessed by measurement of CNV area. CNV lesion volumes are represented as means±SEM.
For the induction of CNV, mice were anesthetized with a mixture of ketamine (14 mg/kg) and xylazine (30 mg/kg) in sterile saline administered intraperitoneally at a dose of 5 μL per 20 g of body weight. Their pupils were then dilated with one drop each of ophthalmic tropicamide (0.5%) and phenylephrine (2.5%). An argon green ophthalmic laser (Oculight GL 532 nm, Iridex Corporation, Mountain View, Calif.) coupled to a slit lamp set to deliver a 100 msec pulse at 150 mW with a 50 μm spot size will then be used to rupture Bruch's membrane in three quadrants of the right eye located approximately 50 μm from the optic disc at relative 9, 12 and 3 o'clock positions. The left eye served as uninjured control in all cases.
The morphometric and volumetric CNV lesions were measured as follows. Two weeks after laser induction of CNV, the animals were euthanized by overdose of ketamine-xylazine mixture, then undergo whole body perfusion via cardiac puncture with 6 ml 4% paraformaldehyde in PBS, pH 7.5, (fixative) as previously described (Sengupta et al., 2003). The eyes will then be enucleated, punctured with a 27 g needle 1 mm posterior to the limbus, and immersed in fixative for 1 hr at room temperature, then washed 2× by immersion in PBS for 30 min. The eyes will then be dissected to isolate the posterior segment consisting of the retinal pigment epithelium, the choriocapillaris and the sclera. This tissue was then permeabilized and reacted with rhodamine-conjugated R. communis agglutinin I (Vector Laboratories, Burlingame, Calif.) to detect the CNV lesion as previously described (Sengupta et al., 2003; Sengupta et al., 2005). […]
Captured digital images were evaluated morphometrically using ImageJ software (Research Services Branch, National Institutes of Health, Bethesda, Md.). Images were split into separate RGB channels for analysis of the red and green channels as follows: 1) a calibration for the specific objective and microscope was applied to set the pixel-to-length ratio; 2) a threshold was applied using the Otsu algorithm; 3) images will be made binary; 4) a region-of-interest (ROI) was outlined to include the entire lesion area; 5) a particle analysis was performed to quantify the pixel area above the threshold level within the ROI. […]

[2] = 28-day toxicity and toxicokinetic study of LT1002 in mice; format: in vivo; conditions: 28 days
Method: The purpose of this study was to determine the toxicity and toxicokinetic profile of the murine anti-S1P monoclonal antibody, LT1002, following daily administration to C57/BL6 mice. The study was conducted by an independent contract laboratory organization, LAB Research, Inc. The LT1002 dosing solutions were administered for 28 consecutive days to animals in each group by bolus intravenous injection via the tail vein (Days 1-14) and then by bolus intraperitoneal injection (Days 15-28), over a period of approximately 0.5-1.0 minute. The treated group animals were dosed with LT1002 at 30, 75 or 200 mg/kg (n=6 per group) and compared to animals treated with PBS as a saline (vehicle) control group.
During the study, animals were monitored for effects on mortality, clinical condition, body weight and food consumption. Blood samples were collected from a subgroup of animals at necropsy for assessment of hematology, coagulation and clinical chemistry. Study animals were euthanized and subjected to a necropsy examination. Selected organs were weighed and a full list of tissues was retained. A histopathology examination was performed on the full tissue list from all control and high dose animals (200 mg/kg/day) and all abnormalities, while target organs were examined on lower dose groups. Blood samples were collected from the toxicokinetic animals (3 animals/sex/group/time point) on Days 1, 14 and 28 and the animals were euthanized and discarded without examination.

[3] = Competitive ELISA for specificity: lipid competitors against anti-S1P mAb binding to coated S1P; conditions: for recognition of ceramide-1-phosphate (C1P): competitor C1P; for cross-reactivity to lysophosphatidic acid (LPA): competitor LPA
Method: As described in Example 1, below, bound antibody was detected by a second antibody, specific for the mouse or human IgG, conjugated with HRP. Chromogenic reactions were measured and reported as optical density (OD). The concentration of lipids used for the competition is indicated on the X-axis.
For cross reactivity, a competitive ELISA was performed as described above, except for the following alterations. The primary incubation consisted of the competitor (S1P, SPH, LPA, etc.) and a biotin-conjugated anti-S1P mAb. Biotinylation of the purified monoclonal antibody was performed using the EZ-Link Sulfo-NHS-Biotinylation kit (Pierce). […] The competitor was prepared as follows: lipid stocks were sonicated and dried under argon before reconstitution in DPBS/BSA [1 mg/ml fatty acid free BSA (Calbiochem) in DPBS (Invitrogen 14040-133)]. Purified anti-S1P mAb was diluted as necessary in PBS/0.5% Triton X-100. Competitor and antibody solutions were mixed together so to generate 3 parts competitor to 1 part antibody. A HRP-conjugated streptavidin secondary antibody (Jackson Immunoresearch) was used to generate signal.
i. Specificity. The humanized variants were tested for specificity in a competitive ELISA assay (FIG. 1) against S1P and several other biolipids.

[4] = 0.5 ug intravitreal, Day 0 and Day 6

LT1009: humanized anti-S1P IgG1/kappa mAb with Cys to Ala in HCDR2, light chain with 5 backmutations; SEQ ID NO: 31/32
absolute number of T cells on Day 28 ([1]; 100 mg/kg): statistically significant decrease | mean lymphocyte counts (+/-SD) after treatment ([1]; 100 mg/kg, males and females combined): 3.18+/−1.25 10^9 cells/L | tolerability ([1]; 3, 10, 30 and 100 mg/kg every third day over 28 days): well tolerated | No Observed Toxic Effect Level (NOTEL) ([1]; 30-minute i.v. infusion every third day for 28 days): 100 mg/kg | inhibition of neovascularization (CNV area/volume), qualitative (CNV lesions; [4]): markedly suppressed neovascularization | Percent inhibition of lesion size (CNV lesions; [4]): ~99% | inhibition compared to non-specific antibody control (CNV lesions; p<0.05): significant inhibition

B1: LT1002: murine anti-S1P monoclonal antibody, IgG1 kappa, from hybridoma clone 306D326.26 (antibody, listed as Mus sp., V domains shown)
VH: QAHLQQSDAELVKPGASVKISCKVSGFIFIDHTIHWMKQRPEQGLEWIGCISPRHDITKYNEMFRGKATLTADKSSTTAYIQVNSLTFEDSAVYFCARGGFYGSTIWFDFWGQGTTLTVS
VL: ETTVTQSPASLSMAIGEKVTIRCITTTDIDDDMNWFQQKPGEPPNLLISEGNILRPGVPSRFSSSGYGTDFLFTIENMLSEDVADYYCLQSDNLPFTFGSGTKLEIK
Percent inhibition of lesion size (CNV lesions; [4]): approximately 80% | average lymphocyte counts (+/-SD) ([2]; 30 mg/kg daily): 0.856+/−0.426 10^9 cells/L | average lymphocyte counts (+/-SD) ([2]; 75 mg/kg daily): 0.902+/−0.269 10^9 cells/L | average lymphocyte counts (+/-SD) ([2]; 200 mg/kg daily): 0.638+/−0.262 10^9 cells/L | Specificity (ELISA) [3]: High | recognition of ceramide-1-phosphate (C1P) [3]: no antibody binding was observed | recognition of ceramide-1-phosphate (C1P) ([3]; listed as SPHINGOMAB): did not recognize | cross-reactivity with dihydrosphingosine-1-phosphate (DH-S1P) ([3]; competitor DH-S1P): did cross react | recognition of dihydrosphingosine (DH-SPH) ([3]; competitor DH-SPH): did not recognize | cross-reactivity to lysophosphatidic acid (LPA) [3]: no binding | cross-reactivity to lysophosphatidic acid (LPA) ([3]; listed as SPHINGOMAB): no cross-reactivity | recognition of phosphatidyl ethanolamine (PE) ([3]; competitor PE): did not recognize | recognition of phosphatidyl serine (PS) ([3]; competitor PS): did not recognize | recognition of sphingomyelin (SM) ([3]; competitor SM): did not recognize | cross-reactivity with sphingosylphosphoryl choline (SPC) ([3]; competitor SPC): somewhat reduced | cross-reactivity to sphingosine (SPH) ([3]; competitor SPH): no cross-reactivity
